Results reported in patent US20220127354A1 (Amgen, published 2022).
Residue numbers refer to the chain shown, from its start. In names and notes the source's numbering stands.

Assays:
Assay in all cases: flow cytometry, transfected 293T cells
[1] = molecular target: T1, muCDH19(44-461)::huCDH19(464-772) with Flag tag (construct H, Hu EC5) (human/mouse chimera)
T1 construct: leader left out; the entry starts at residue 44; also called C137915
T1 chain: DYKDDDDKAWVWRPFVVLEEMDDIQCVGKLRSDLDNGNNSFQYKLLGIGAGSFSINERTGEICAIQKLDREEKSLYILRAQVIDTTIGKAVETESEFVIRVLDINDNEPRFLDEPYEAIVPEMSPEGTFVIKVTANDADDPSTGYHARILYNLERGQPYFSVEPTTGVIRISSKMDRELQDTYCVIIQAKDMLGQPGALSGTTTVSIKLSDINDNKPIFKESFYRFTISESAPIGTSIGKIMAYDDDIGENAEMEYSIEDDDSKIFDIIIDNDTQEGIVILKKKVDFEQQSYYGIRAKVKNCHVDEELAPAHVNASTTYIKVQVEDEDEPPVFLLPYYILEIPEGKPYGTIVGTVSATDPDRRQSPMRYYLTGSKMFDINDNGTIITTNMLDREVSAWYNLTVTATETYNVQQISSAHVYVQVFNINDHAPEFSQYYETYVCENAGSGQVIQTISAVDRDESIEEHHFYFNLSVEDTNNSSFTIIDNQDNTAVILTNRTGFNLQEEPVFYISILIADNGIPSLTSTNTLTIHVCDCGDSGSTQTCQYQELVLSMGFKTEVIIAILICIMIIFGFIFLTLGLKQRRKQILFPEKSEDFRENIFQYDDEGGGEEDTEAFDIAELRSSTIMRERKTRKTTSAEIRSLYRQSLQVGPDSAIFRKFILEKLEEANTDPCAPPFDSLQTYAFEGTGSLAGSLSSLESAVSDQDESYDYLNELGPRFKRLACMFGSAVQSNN
Source text: (§1) The experiment included assaying the anti-CDH19 antibodies against mouse Cadherin19 to determine suitability for binning on these human/mouse chimeras.

[2] = molecular target: T2, muCDH19(44-139)::huCDH19(142-249)::muCDH19(248-770) with Flag tag (construct D, Hu EC2) (human/mouse chimera)
T2 construct: leader left out; the entry starts at residue 44; also called C137913
T2 chain: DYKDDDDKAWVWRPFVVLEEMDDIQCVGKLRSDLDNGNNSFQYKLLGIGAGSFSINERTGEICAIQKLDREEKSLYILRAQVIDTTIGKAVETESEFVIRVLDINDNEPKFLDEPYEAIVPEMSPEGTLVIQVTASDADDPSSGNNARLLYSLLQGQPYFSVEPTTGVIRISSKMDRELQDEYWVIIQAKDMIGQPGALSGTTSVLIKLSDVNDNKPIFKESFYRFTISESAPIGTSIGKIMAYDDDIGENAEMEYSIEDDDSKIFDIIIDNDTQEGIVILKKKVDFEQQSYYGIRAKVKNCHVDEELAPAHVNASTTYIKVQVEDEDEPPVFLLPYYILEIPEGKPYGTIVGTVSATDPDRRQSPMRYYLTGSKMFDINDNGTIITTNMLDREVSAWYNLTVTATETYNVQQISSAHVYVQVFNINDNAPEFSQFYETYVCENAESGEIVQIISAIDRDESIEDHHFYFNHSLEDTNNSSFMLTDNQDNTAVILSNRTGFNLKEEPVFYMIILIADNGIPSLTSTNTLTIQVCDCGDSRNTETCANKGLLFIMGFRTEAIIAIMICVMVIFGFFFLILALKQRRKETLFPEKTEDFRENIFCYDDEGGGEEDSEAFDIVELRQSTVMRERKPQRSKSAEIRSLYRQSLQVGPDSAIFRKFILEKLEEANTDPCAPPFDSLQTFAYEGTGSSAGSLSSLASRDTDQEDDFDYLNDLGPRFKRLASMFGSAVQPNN
Source text: as §1

[3] = molecular target: T3, muCDH19(44-362)::huCDH19(365-772) with Flag tag (construct G, Hu EC4-5) (human/mouse chimera)
T3 construct: leader left out; the entry starts at residue 44; also called C137917
T3 chain: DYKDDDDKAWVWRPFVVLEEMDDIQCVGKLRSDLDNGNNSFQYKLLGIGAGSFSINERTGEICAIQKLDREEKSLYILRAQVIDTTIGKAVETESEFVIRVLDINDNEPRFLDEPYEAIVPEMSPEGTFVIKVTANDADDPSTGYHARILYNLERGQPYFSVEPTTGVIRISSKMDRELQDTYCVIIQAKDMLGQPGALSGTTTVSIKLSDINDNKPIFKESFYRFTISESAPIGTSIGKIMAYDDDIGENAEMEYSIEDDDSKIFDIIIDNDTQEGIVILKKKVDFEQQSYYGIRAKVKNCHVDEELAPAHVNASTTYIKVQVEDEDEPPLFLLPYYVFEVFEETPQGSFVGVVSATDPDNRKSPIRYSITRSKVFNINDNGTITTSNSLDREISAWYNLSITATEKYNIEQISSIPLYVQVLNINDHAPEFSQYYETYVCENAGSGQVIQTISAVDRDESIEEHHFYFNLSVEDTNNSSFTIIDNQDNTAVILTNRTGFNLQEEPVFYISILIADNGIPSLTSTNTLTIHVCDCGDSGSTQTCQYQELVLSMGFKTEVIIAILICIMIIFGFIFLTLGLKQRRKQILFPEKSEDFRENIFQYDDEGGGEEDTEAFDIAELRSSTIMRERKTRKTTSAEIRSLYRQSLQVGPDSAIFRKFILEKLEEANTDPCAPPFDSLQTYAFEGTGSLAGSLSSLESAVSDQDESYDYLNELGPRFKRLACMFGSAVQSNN
Source text: as §1

[4] = molecular target: huCDH19(44-772) with Flag tag (construct A, Hu EC1-5) (human, UniProt Q9H159 44-772)
Source text: as §1

[5] = molecular target: T4, muCDH19(44-139)::huCDH19(142-364)::muCDH19(363-770) with Flag tag (construct E, Hu EC2-3) (human/mouse chimera)
T4 construct: leader left out; the entry starts at residue 44; also called C137847
Source text: as §1

[6] = molecular target: T5, muCDH19(44-247)::huCDH19(250-364)::muCDH19(363-770) with Flag tag (construct F, Hu EC3) (human/mouse chimera)
T5 construct: leader left out; the entry starts at residue 44; also called C137911
Source text: as §1

[7] = molecular target: T6, muCDH19(44-770) with Flag tag (construct I, Mu EC1-5) (mouse)
T6 construct: leader left out; the entry starts at residue 44; also called Mo EC1-5; mouse Cadherin19
T6 chain: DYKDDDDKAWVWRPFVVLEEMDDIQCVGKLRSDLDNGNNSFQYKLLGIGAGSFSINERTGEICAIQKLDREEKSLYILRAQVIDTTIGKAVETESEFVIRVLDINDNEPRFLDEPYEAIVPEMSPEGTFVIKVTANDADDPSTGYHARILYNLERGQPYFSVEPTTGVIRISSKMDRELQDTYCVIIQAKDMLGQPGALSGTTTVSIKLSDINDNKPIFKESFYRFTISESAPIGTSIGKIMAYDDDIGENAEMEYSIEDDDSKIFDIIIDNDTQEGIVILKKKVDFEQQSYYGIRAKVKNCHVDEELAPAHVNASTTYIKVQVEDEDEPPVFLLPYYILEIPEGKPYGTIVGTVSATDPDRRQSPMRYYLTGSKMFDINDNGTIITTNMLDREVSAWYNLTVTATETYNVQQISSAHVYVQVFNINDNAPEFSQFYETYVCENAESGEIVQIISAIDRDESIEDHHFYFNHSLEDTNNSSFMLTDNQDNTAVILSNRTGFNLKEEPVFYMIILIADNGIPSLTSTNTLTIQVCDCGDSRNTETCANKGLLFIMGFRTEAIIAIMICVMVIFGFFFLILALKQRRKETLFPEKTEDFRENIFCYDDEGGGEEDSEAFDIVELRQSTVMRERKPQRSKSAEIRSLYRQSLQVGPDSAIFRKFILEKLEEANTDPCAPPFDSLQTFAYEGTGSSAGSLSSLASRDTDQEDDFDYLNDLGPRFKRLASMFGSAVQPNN
Source text: as §1

[8] = molecular target: T7, huCDH19(44-249)::muCDH19(248-770) with Flag tag (construct C, Hu EC1-2) (human/mouse chimera)
T7 construct: leader left out; the entry starts at residue 44; also called C137896
Source text: as §1

[9] = molecular target: T8, huCDH19(44-141)::muCDH19(140-770) with Flag tag (construct B, Hu EC1) (human/mouse chimera)
T8 construct: leader left out; the entry starts at residue 44; also called C137897
Source text: as §1

Measured: binding result

B1: hu anti-<huCDH19> 2G6 (1-477)(R17G) VH::huIgG1z + 23A10.3 (1-231)(C42S) VL::huLLC-C2 (Ab ID 14304) (antibody, V domains shown)
VH: QVQLVESGGGVVQPGGSLRLSCAASGFTFSSYGMHWVRQAPGKGLEWVAFIWYDGSNKYYADSVKDRFTISRDNSKNTLYLQMKSLRAEDTAVYYCARRAGIIGTIGYYYGMDVWGQGTTVTVSS
VL: SYELTQPPSVSVSPGQTASITCSGDRLGEKYVSWYQQKPGQSPILVIYQDNKWPSGIPERFSGSNSGNTATLTISGTQAMDEADYYCQAWDSSTVVFGGGTKLTVLG
notes: light chain is that of 23A10.3 (C42S); Bin 4
binds: all assays above

B2: hu anti-<huCDH19> 2G6 (1-477)(R17G,D61E,D72E,K94N) VH::huIgG1z + 2G6 (1-234)(C42S,D110E) VL::huLLC-C1 (Ab ID 14039) (antibody, V domains shown)
VH: B1 VH with D54E, D62E, K84N
VL: B1 VL with V32T, K38R, I44L, N51T, W53R, D91E
notes: Engineered variant of 2G6; the entries already carry the changes; Bin 4
binds: all assays above
